According to the supplement of paper PMC10724198:

How the values were obtained:
Saccharomyces cerevisiae [1] = assay: protein stability index of tFT-peptide fusion in deletion strain of DOA10 (PSI (0-1 scale)); higher = more stable (slower turnover)
Procedure: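 MPS profiling in S. cerevisiae of two library types built from selected 12-aa C-degron peptides (IN1, IN2, LN1, LN3, VN2, R1-R5, W1-W3, Atg1 and Rpa12 C-termini): saturation mutagenesis libraries and C-terminal +1 capping libraries (13 aa). Each peptide is fused to the C-terminus of a sfGFP-mCherry timer, after a GGGS linker. Cells are FACS-sorted into 8 mCherry/sfGFP bins and sequenced. PSI runs from 0 (unstable) to 1 (stable), measured once in wild type and in the das1Δ or doa10Δ background.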

Saccharomyces cerevisiae [2] = assay: protein stability index of tFT-peptide fusion in wild type (PSI (0-1 scale)); higher = more stable (slower turnover); settings: genetic background: wild type
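Wherever protein stability index of tFT-peptide fusion in deletion strain of DOA10 is given: PSI per variant is the weighted mean of its sequencing read distribution over the sorted stability bins, counting only variants with over 10 reads summed across bins.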
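Wherever protein stability index of tFT-peptide fusion in wild type is given: PSI derived as read-weighted mean over the 8 sorting bins, only variants exceeding 10 total reads kept, mCherry placed adjacent to the peptide and sfGFP distal.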

Sequence | protein stability index (Saccharomyces cerevisiae [1]) | protein stability index (Saccharomyces cerevisiae [2])
AITLQMCPLLLR | 0.619 | 0.3
AITLWMCPLLLR | 0.611 | 0.267
AITSPMCPLLLR | 0.672 | 0.491
AIVLPMCPLLLR | 0.623 | 0.229
ALYMCSVGCWFR | 0.638 | 0.351
ANTLPMCPLLLR | 0.649 | 0.442
CEVSLPILLFFR | 0.635 | 0.066
CLPSLPILLFFR | 0.632 | 0.0469
CLTSLPILLFFR | 0.636 | 0.0745
CLVFLPILLFFR | 0.416 | 0.0802
CLVKLPILLFFR | 0.6 | 0.06
CLVSFPILLFFR | 0.583 | 0.0594
CLVSLMILLFFR | 0.398 | 0.256
CLVSLPELLFFR | 0.692 | 0.176
CLVSLPIHLFFR | 0.669 | 0.0666
CLVSLPILFFFR | 0.59 | 0.499
CLVSLPILHFFR | 0.667 | 0.628
CLVSLPILLFCR | 0.25 | 0.0631
CLVSLPILLFFM | 0.479 | 0.299
CLVSLPILLHFR | 0.655 | 0.286
CLVSLPILLKFR | 0.652 | 0.178
CLVSLPILLSFR | 0.631 | 0.187
CLVSLPILLVFR | 0.527 | 0.0722
CLVSLPILPFFR | 0.679 | 0.0842

Sequence | protein stability index (Saccharomyces cerevisiae [1]) | protein stability index (Saccharomyces cerevisiae [2])
CLVSLPILVFFR | 0.512 | 0.0876
CLVSLPILWFFR | 0.61 | 0.566
CLVSLPIMLFFR | 0.607 | 0.0325
CLVSLPIPLFFR | 0.643 | 0.0774
CLVSLPIVLFFR | 0.581 | 0.0839
CLVSLPKLLFFR | 0.662 | 0.0835
CLVSLPSLLFFR | 0.667 | 0.0935
CLVSSPILLFFR | 0.645 | 0.272
CPVSLPILLFFR | 0.602 | 0.0943
CSLRVLLPLYFR | 0.622 | 0.0975
DLYMCSVGCWFR | 0.697 | 0.453
ELVSLPILLFFR | 0.633 | 0.0794
FSLRVLLPLYFR | 0.608 | 0.268
GAYMCSVGCWFR | 0.686 | 0.427
GDYMCSVGCWFR | 0.692 | 0.462
GLIMCSVGCWFR | 0.39 | 0.197
GLLMCSVGCWFR | 0.409 | 0.22
GLMMCSVGCWFR | 0.506 | 0.237
GLPMCSVGCWFR | 0.699 | 0.267
GLWMCSVGCWFR | 0.54 | 0.315
GLYMCAVGCWFR | 0.54 | 0.279
GLYMCCVGCWFR | 0.504 | 0.303
GLYMCSCGCWFR | 0.674 | 0.46
GLYMCSNGCWFR | 0.703 | 0.397

Sequence | protein stability index (Saccharomyces cerevisiae [1]) | protein stability index (Saccharomyces cerevisiae [2])
GLYMCSPGCWFR | 0.679 | 0.246
GLYMCSVGAWFR | 0.667 | 0.451
GLYMCSVGCFFR | 0.632 | 0.408
GLYMCSVGCIFR | 0.637 | 0.587
GLYMCSVGCSFR | 0.651 | 0.621
GLYMCSVGCTFR | 0.64 | 0.609
GLYMCSVGCWDR | 0.665 | 0.627
GLYMCSVGCWFY | 0.52 | 0.398
GLYMCSVICWFR | 0.314 | 0.231
GLYMCSVLCWFR | 0.369 | 0.274
GLYMCSVSCWFR | 0.446 | 0.338
GLYMISVGCWFR | 0.341 | 0.17
GLYQCSVGCWFR | 0.676 | 0.434
GLYSCSVGCWFR | 0.676 | 0.451
GLYYCSVGCWFR | 0.605 | 0.249
GMYMCSVGCWFR | 0.713 | 0.271
GNYMCSVGCWFR | 0.699 | 0.405
MITLPMCPLLLR | 0.626 | 0.302
MSLRVLLPLYFR | 0.622 | 0.314
QLVSLPILLFFR | 0.647 | 0.0846
QSLRVLLPLYFR | 0.659 | 0.283
RCTRLDAIYFRI | 0.674 | 0.46
RILRVLLPLYFR | 0.654 | 0.386
RLTRLDAIYFRI | 0.663 | 0.379

Sequence | protein stability index (Saccharomyces cerevisiae [1]) | protein stability index (Saccharomyces cerevisiae [2])
RQLRVLLPLYFR | 0.665 | 0.216
RRLRVLLPLYFR | 0.668 | 0.292
RSLAVLLPLYFR | 0.68 | 0.34
RSLRVALPLYFR | 0.675 | 0.189
RSLRVLLHLYFR | 0.605 | 0.254
RSLRVLLLLYFR | 0.432 | 0.217
RSLRVLLPDYFR | 0.672 | 0.64
RSLRVLLPGYFR | 0.673 | 0.624
RSLRVLLPLEFR | 0.679 | 0.601
RSLRVLLPLTFR | 0.671 | 0.379
RSLRVLLPLYFL | 0.516 | 0.319
RSLRVLLPLYFRF | 0.584 | 0.195
RSLRVLLPLYFRH | 0.616 | 0.284
RSLRVLLPLYFRQ | 0.606 | 0.205
RSLRVLLPLYFRV | 0.441 | 0.164
RSLRVLLPLYIR | 0.596 | 0.255
RSLRVLLPLYPR | 0.69 | 0.65
RSLRVLLPLYWR | 0.658 | 0.301
RSLRVLLTLYFR | 0.511 | 0.391
RSLRVLNPLYFR | 0.684 | 0.359
RSLRVLWPLYFR | 0.676 | 0.181
RSLRVQLPLYFR | 0.685 | 0.136
RSLRVSLPLYFR | 0.687 | 0.15
RSLRVTLPLYFR | 0.676 | 0.159

Sequence | protein stability index (Saccharomyces cerevisiae [1]) | protein stability index (Saccharomyces cerevisiae [2])
RSPRVLLPLYFR | 0.681 | 0.334
RSRRVLLPLYFR | 0.702 | 0.297
RSSRVLLPLYFR | 0.699 | 0.346
RVCRLDAIYFRI | 0.638 | 0.403
RVIRLDAIYFRI | 0.653 | 0.331
RVLRVLLPLYFR | 0.634 | 0.369
RVQRLDAIYFRI | 0.666 | 0.426
RVTQLDAIYFRI | 0.685 | 0.524
RVTRIDAIYFRI | 0.693 | 0.337
RVTRLDAINFRI | 0.729 | 0.683
RVTRLDAIYFCI | 0.435 | 0.378
RVTRLDAIYFPI | 0.731 | 0.703
RVTRLDAIYFRIG | 0.408 | 0.335
RVTRLDAIYFRIP | 0.371 | 0.247
RVTRLDAIYFRIV | 0.114 | 0.0601
RVTRLDAIYFRP | 0.697 | 0.643
RVTRLDAIYVRI | 0.635 | 0.469
RVTRLDALYFRI | 0.705 | 0.32
RVTRLDFIYFRI | 0.596 | 0.171
RVTRLDIIYFRI | 0.645 | 0.271
RVTRLDNIYFRI | 0.702 | 0.484
